Here are results for two molecules from patent US20240025993A1 (Novartis, published 2024).

The target of the assay is T1, human CD19 (human, UniProt P15391 20-556).
T1 construct: whole, on cells; also called huCD19; hCD19
T1 sequence (looked up): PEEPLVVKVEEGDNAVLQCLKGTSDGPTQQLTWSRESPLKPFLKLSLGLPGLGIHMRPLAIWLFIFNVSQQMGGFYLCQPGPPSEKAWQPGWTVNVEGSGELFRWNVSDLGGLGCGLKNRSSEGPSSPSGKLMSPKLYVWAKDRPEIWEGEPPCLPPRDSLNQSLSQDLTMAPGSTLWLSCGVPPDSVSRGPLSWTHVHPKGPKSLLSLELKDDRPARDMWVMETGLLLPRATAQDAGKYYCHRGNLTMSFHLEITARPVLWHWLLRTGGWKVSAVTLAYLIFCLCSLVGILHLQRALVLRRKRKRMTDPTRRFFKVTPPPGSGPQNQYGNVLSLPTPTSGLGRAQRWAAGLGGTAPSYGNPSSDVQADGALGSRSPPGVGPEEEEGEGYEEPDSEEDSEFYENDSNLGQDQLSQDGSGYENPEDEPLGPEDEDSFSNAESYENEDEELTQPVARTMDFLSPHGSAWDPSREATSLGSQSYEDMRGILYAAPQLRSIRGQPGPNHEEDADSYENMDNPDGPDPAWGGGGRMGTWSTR
Kind of assay: summary sentence of the examples; no method at this place.

B1: NEG258 (antibody, V domains shown)
VH: QVQLVQSGAEVKKPGASVKVSCKASGYTFTTYWIQWVRQAPGQRLEWMGAVYPGDADTRYTQKFQGRVTLTADRSASTAYMELSSLRSEDTAVYYCGRDAGLEYYALDYWGQGTLVTVSS
VL: EIVMTQSPATLSVSPGERATLSCRASQDVGTAVAWYQQKPGQAPRLLIYWASTRHTGIPARFSGSGSGTEFTLTISSLQSEDFAVYFCQQYANFPLYTFGQGTKLEIK
notes: also called CD19 antibody NEG258; anti-CD19 antibody NEG258
For B1, the binding result was “binds”.

B2: NEG218 (antibody, V domains shown)
VH: EVQLVQSGAEVKKPGESLKISCKASGYSFTNYWMNWVRQMPGKGLEWMGMIHPSDSEIRLNQKFQGQVTLSVDKSIGTAYMQWSSLKASDTAMYYCSRWYYLSSPMDYWGQGTTVTVSS
VL: EIVMTQSPATLSVSPGERATLSCRASQDVGTAVAWYQQKPGQAPRLLIYWASTRHTGIPARFSGSGSGTEFTLTISSLQSEDFAVYFCQQYSSYPYTFGQGTKLEIK
notes: also called CD19 antibody NEG218; anti-CD19 antibody NEG218
As to B2, the binding result is given as “binds”.
